Target: T1, GST-tagged PTP1B, full length (UniProt P18031 1-435)
T1 construct: protein tyrosine phosphatase PTP1B (PTPN1), full-length cDNA subcloned into pGEX-4T1; The cDNA probably comes from pJ3H PTP1B (Addgene 8601); also called GST-PTP1B; source: E. coli, purified (glutathione resin)
T1 sequence (looked up): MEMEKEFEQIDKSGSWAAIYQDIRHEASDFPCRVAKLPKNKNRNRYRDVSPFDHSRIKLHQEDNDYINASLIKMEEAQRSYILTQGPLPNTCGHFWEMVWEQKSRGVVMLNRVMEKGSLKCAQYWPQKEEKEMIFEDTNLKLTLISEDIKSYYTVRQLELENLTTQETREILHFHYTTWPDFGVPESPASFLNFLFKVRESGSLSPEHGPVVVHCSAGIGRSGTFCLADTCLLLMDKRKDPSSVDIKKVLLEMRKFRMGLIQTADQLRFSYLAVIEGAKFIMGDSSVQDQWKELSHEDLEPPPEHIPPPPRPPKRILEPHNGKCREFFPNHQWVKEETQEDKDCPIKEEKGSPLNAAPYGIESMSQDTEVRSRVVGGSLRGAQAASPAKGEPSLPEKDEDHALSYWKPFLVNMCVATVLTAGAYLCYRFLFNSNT
Assay: pull-down; GST pull-down with purified proteins from E. coli: His-PDL1-CT / MBP-PDL1-CT (0.5 μg) and 0.5 μg GST or GST-fusion proteins
Settings: both partners purified

B1: MBP-tagged PD-L1 cytoplasmic domain (domain or fragment, human, UniProt Q9NZQ7 262-290, looked up)
chain: RKGRMMDVKKCGIQDTNSKKQSDTHLEET
notes: PD-L1 cytoplasmic domain, human, amino acids 262-290, subcloned into pET-His6 (Addgene plasmid 29656; named in the acknowledgements as PET His6 MBP TEV LIC cloning vector); The results and legend call it MBP-PDL1-CT, the methods of the pull-down His-PDL1-CT; also called MBP-PDL1-CT; His-PDL1-CT; source: E. coli, purified (His resin)
binding result: binds

From publication PMC8119208 (JCI Insight, 2021)
